The text below walks through data of patent publication US20220127328A1 (FATE THERAPEUTICS, published 2022).

The test addresses T1, NKG2C (transgenic, expressed on the surface of iPSC-derived NK cells) (Homo sapiens (Human), UniProt P26717 1-231).
T1 construct: After 2A cleavage a C-terminal 2A remnant may stay on the chain; also called transgenic NKG2C
In words: FACS of surface NKG2C on iNK cells from the NKG2C only iPSC line; pairing inferred from surface expression. An excerpt: After the engineering step, iPSCs were sorted for the desired phenotype. […] Engineered iPSCs were differentiated into CD34+ hematopoietic progenitor cells and subsequently differentiated into CD56+ NK cells (iNK cells) using a stepwise differentiation and expansion strategy. Surface NKG2C expression was low on unmodified iNK cells (about 5-10%) as determined by FACS.

T1 sequence (P26717 whole entry): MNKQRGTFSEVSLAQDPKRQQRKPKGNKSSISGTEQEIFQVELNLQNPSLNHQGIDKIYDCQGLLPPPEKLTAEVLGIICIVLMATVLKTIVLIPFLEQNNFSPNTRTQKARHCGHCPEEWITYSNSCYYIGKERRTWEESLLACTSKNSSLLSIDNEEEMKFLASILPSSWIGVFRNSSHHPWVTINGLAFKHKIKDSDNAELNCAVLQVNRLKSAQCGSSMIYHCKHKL

B1: endogenous DAP12 (other, human, UniProt O43914 22-113, looked up)
chain: LRPVQAQAQSDCSCSTVSPGVLAGIVMGDLVLTVLIALAVYFLGRLVPRGRGAAEAATRKQRITETESPYQELQGQRSDVYSDLNTQRPYYK
notes: whole, on cells
On to B1, for which the binding result is recorded as “binds”.

B2: endogenous CD94 (receptor, human, UniProt Q13241 1-179, looked up)
chain: MAVFKTTLWRLISGTLGIICLSLMSTLGILLKNSFTKLSIEPAFTPGPNIELQKDSDCCSCQEKWVGYRCNCYFISSEQKTWNESRHLCASQKSSLLQLQNTDELDFMSSSQQFYWIGLSYSEEHTAWLWENGSALSQYLFPSFETFNTKNCIAYNPNGNALDESCEDKNRYICKQQLI
notes: whole, on cells
As for B2, the binding result is reported as “binds”.
